# From patent publication US20180325979A1 (UNIVERSITY OF SOUTHAMPTON, published 2018)
# Molecular target: T1, HLA-Cw*0102 on the HLA-Cw*0102-positive cell line L721.174
# T1 construct: whole, on cells
# Experiment: MHC class I stabilisation on L721.174 cells, flow cytometry
row,Binder,binding result
1,LNPSVAATL [peptide LNPSVAATL (SEQ ID NO: 5)],binds
2,IVDLMCHATF (also called Dengue virus peptide) [peptide IVDLMCHATF (SEQ ID NO: 1)],binds
